Literature values in PMC11155677.

Biological target: Lys115 (UniProt position 115, LSAYPKKLGYP)

Acetoacetate decarboxylase (AADase) (not stated (Clostridium acetobutylicum inferred))
pKa: 6
